The domain aggregation screens of Martell et al. (2025)

Test: soluble fraction after stress (log2 fold change); higher = more stays soluble; pooled small domains, quantitative proteomics
Details: stress: 75 degC
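Note: 20 min heating vs room temperature control held 20 min.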

Sequence | soluble fraction (log2)
HMNSSHRLIGLDPGLRVTGWGIVDAIGTKLVHVANGSVKSQQNAPLATRLLELENGLEEVFDNWQPDFA | 0.034
HMNSVLPQEVKSSLNDFFTKYAPGSIAQKLINHASFTGGKVVVTGVELTQTQADDLKKAFKDKFF | -0.00219
HMNSVTLEHIVYDFRVFNMLKGSGINDIDELIKAAEDGRLFKIIGSNLTYKRIKKSAAEFGVILPDKPG | -2.25
HMNSVYTPDPKELAKAIKIVTAAREAEQKGQGVIAVDGRMVDAPVVSQALRILELARLAGMEVSE | 0.0743
HMNTAIPIAIDQLRIGMYIQLGLNWMSHPFPVSSFRIASESQIEILRGLGLAEVRYVPAKSDPVP | -3.26
HMNTDEYEQKRGEILDAAQRLIYTKGYERMSIQDILDELKISKGAFYHYFDSKQSLLEALTARMMTE | -0.44
HMNTDIHRLLDEAFVRVDMTPDAQHLKEEIRANLVARVDELEASGVPSADAARRAIAELGDVRELL | 0.291
HMNTFDLSKLEEIILASRDKAMKTKEFTELDNLKNLFITAGLDVQMSKNGIKLIKGPKFNSSLLEDF | -0.878
HMNTIIIDILPKGLSIAGNQTEPKSLIQQLLMARRADPAQPILLRPAIAVPVQNVVELIDRLTAAGI | -0.306
HMNTISEADAKRIALERAGLTAADYVKVDYDQDDNEYEVEMRSGNTEYEVKISGSTGAVLEYDSETD | -0.358
HMNTISTLEITTKKDIRILDESELLKSKSSKNNIFNYLLASGDFNLLKDKLNEIDEFSDEIISYQLN | -0.788
HMNTKQRTAVMRILKQSSDPVSADDVFAALKDEYPSLALSTVYRNLERFADESMVKKDVWSDGIVRYSLAD | -0.21
HMNTLGTNIAKLRESQKLTQEELGKLSGVSRVSIYKIETGQSTPRDTTLQNIAEALHTTPSALRS | 0.0781
HMNTLLYAPKVSPNPFTPNADGINDVVNISYKLLRVISAVPISVEVFDLSGRLIKTLYSGVDPLGEY | 0.194
HMNTLPASVQPKKGRLYAVIQTKENGKSKPVWRSLGLPEGSNKSKVNKAFREVVKQFEEEYAERLAR | -0.181
HMNTLPTDELMKYGIINEDLSFSKKLNADDIQKFLQGYTIVADNDKNRATFQLTENNTKLKVIFLER | -0.44
HMNTLRFPEGTPEKDRMSIILASYNSGIGHVNDARRLARLNGEDPNSWEVVARYLQLKAQPEYYESEAVK | -0.204
HMNTPAENFDKAVEKYKSTNSATEKDAAFKVIEDEWIKLSDEEKKERQDEYDSIFESEGDRV | 0.0843
HMNTQGWEIFEGRITTADTDLNPSGWIRIDGQRIFVISDAGFIDKGKEVSILSVDGNRVLVRK | -0.646
HMNTSMIEHMDKSTFIRFVFTNPVTHDQAVAKLMEKHMWFSTEEKAEAEIDKLLNKTNSLIESGGKLTW | 0.0867

Sequence | soluble fraction (log2)
HMNTTLQLDTILRLEKNAHLLENFVRAGFTDSELGKLTDADLLQIGVPKIGDRRRLLAALAERAH | -0.904
HMNTVSPAVSAQLRQELGGELNNANFQQLQQYLQAGQRDEAIVYLTSLGIESPRAVSIVNNAMDQIG | 0.494
HMNVDIVEITKNSSPNQISKVIDIGAIQIVEDLMSFGIMKAIDTPLEDSEIEQLLEKYNLIVDLIE | -2.01
HMNVDSIPGKSGIVTQGIDNLKAMGRVTVNGMEWTARSKDGSLIEEGKVVRVYGVEGVKLIVEED | 0.0811
HMNVDSLPGEKAVVIKTIDNLRGTGQAVVNGLEWSAKSKDETIIDEGKVVRIVAVEGVKLVVEEE | 0.0298
HMNVEALIGREGRVTDKIEANGYGRVKVDGDSWKAKSANGAEIRQNTDVRILSIDSVIITVEP | -0.766
HMNVESLVGKQVIVSETIDNLKATGQVKVNGLEWTARAADETDIIPQGTEVTINEVSGVKLIVSR | 0.0398
HMNVESMVGKQGKVVVEIDNISAKGMIKVDGMEWTARSVDGEIIPKDSLVAVVSVEGVKAMVRKAE | -0.106
HMNVGKRLKSLREKYKFSLEEVAKKIKSSAGAISRYENNERKINSESLIRLSNLYNVSPEYILYG | -0.621
HMNVKQALLELMQRKPELTGSAIARAIGYSPAVISQYLKDGYPGDVVKLTTLIGDFIRRIDEKERS | -0.526
HMNVKVYATIDGDNFKVSGLKPGSNVRVYSSNGSAVFEKKAGDSEMIIPAGAWTKGIYVISADDQSIKVT | -0.0855
HMNVLGQTAIVRSLRLDATFGEVLLADGGAGLIFKARTHGDETFKKGDRVVLLEYLKDQHAYRVISETDFL | -2.45
HMNVLLGISELSHATGVTPAQLRYWVSQGYIKNYGSNKKNKFSLETVFMVRSIKIFQNQGYTLSASAKRAA | -1.38
HMNVNFVQANLANLPNIQAIYQKGNEMLNDMKRGEAREIDEAYSRVDNGVGTEKDFKVLLSFRDKIIAAMQ | -0.112
HMNVNSMIGKEGRVIEDIDNFNETGRIIVDGMEWTARAVNEQSITSGQKVVIREIQGVKAMVVPM | 0.115
HMNVNTNTILKSLMETYPDSTVFKKAEIVSIANSLGFKKSDYSPLTSTDNRTDVRGQYDLSAVIIPMRESN | -0.14
HMNVPYEMVTQNGEVFYKYKVQPGEGVFAVSRTFSVSVAEILRVNPEANKGLKNGQVLLIPVPKDMIA | -1.71
HMNVVGAKGRIIKISSSEEKMAVAEIEGHGEWNIRTNSEIELFVGKSVEVIEMKGNYLLVNQI | -3.01
HMNVWESVDLRQEQHEAKRRLILKQAALLFADRGFHETTIDQIAEALNVTKPTIYYYIESKEDLLYQVA | -0.135
